B1: LF: Lactoferrin (LF) is an 80 kDa glycoprotein that exists in mucosal secretions from exocrine glands and neutrophil granules (protein, UniProt P02788 20-710, looked up)
Lactotransferrin: GRRRSVQWCAVSQPEATKCFQWQRNMRKVRGPPVSCIKRDSPIQCIQAIAENRADAVTLDGGFIYEAGLAPYKLRPVAAEVYGTERQPRTHYYAVAVVKKGGSFQLNELQGLKSCHTGLRRTAGWNVPIGTLRPFLNWTGPPEPIEAAVARFFSASCVPGADKGQFPNLCRLCAGTGENKCAFSSQEPYFSYSGAFKCLRDGAGDVAFIRESTVFEDLSDEAERDEYELLCPDNTRKPVDKFKDCHLARVPSHAVVARSVNGKEDAIWNLLRQAQEKFGKDKSPKFQLFGSPSGQKDLLFKDSAIGFSRVPPRIDSGLYLGSGYFTAIQNLRKSEEEVAARRARVVWCAVGEQELRKCNQWSGLSEGSVTCSSASTTEDCIALVLKGEADAMSLDGGYVYTAGKCGLVPVLAENYKSQQSSDPDPNCVDRPVEGYLAVAVVRRSDTSLTWNSVKGKKSCHTAVDRTAGWNIPMGLLFNQTGSCKFDEYFSQSCAPGSDPRSNLCALCIGDEQGENKCVPNSNERYYGYTGAFRCLAENAGDVAFVKDVTVLQNTDGNNNEAWAKDLKLADFALLCLDGKRKPVTEARSCHLAMAPNHAVVSRMDKVERLKQVLLHQQAKFGRNGSDCPDKFCLFQSETKNLLFNDNTECLARLHGKTTYEKYLGPQYVAGITNLKKCSTSPLLEACEFLRK
B2: nitrated LF: LF nitrated with sodium peroxynitrite at ONOO-/Tyr molar ratios of 10/1 and 40/1 (protein, UniProt P02788 20-710, looked up)
Lactotransferrin: B1 Lactotransferrin
modifications: tyrosine nitration by peroxynitrite

Key:
E. coli (ATCC 25922) = assay: standard broth dilutions susceptibility test, read at 600 nm; format: cell-based
Protocol: The following methods were used to conduct the experiments described in Examples 1-3, below: The experiments were conducted using the standard broth dilutions susceptibility test (Jorgensen, J. H.; Turnidge, J. D., Susceptibility test methods: dilution and disk diffusion methods. In Manual of Clinical Microbiology, Eleventh Edition, American Society of Microbiology: 2015; pp 1253-73). Briefly, 1 μl of glycerol stock aliquot of E. coli (ATCC 25922) was inculcated into Tryptic Soya agar (TSA) (Sigma Aldrich 22091) plates and incubated at 37° C. for 24 hrs. Subsequently, 3-5 separate colonies were selected and transferred into 4 ml Tryptic Soya broth (TSB) (Sigma Aldrich 22092) and incubated at 37° C. for 24 hrs. After incubation, samples were diluted 4 ml into 50 ml TSB to make E. coli stock. 200 μl samples were then placed into wells of a 96-microwell plate. All samples were prepared in TSB, (Blank) using TSB, ERGO (OXIS International), LF (Sigma Aldrich) and NLF were diluted to 1 mg/ml. The nitration reaction was prepared following the method reported by Selzle et al (Determination of nitration degrees for the birch pollen allergen Bet v 1. Analytical and Bioanalytical Chemistry 2013, 405(27):8945-49). According to this procedure, 400 μl aliquots of 5.0 mg/ml (±5%) LF in aqueous solution were pipetted into glass vials. […] Using the plate reader (Tecan Infinite, M1000 PRO). […]

[1] = ferrous iron (Fe++) binding capacity of LF; settings: following sodium peroxinitrite-induced nitration of the iron-containing form of the protein
From the text: As noted above, LF binds ferrous iron (Fe++) and controls iron distribution throughout the body and its ability to bind to inflammatory and other cell membranes and impact the activities of these cells through its iron binding activities and other mechanisms. The inventors hypothesized that the antibacterial effect may be linked to the iron binding activity of LF and that this antibacterial effect may be disrupted by nitration.
However, sodium peroxinitrite caused changes that went far beyond the mere nitration of a few tyrosine residues to include destruction of tyrosine and tryptophan which at least in part were converted to unidentified reaction products. Nitration can occur as a consequence of the formation of reactive nitrogen species in the body and as a result of drug or chemical reactions, and/or environmental toxins in polluted air, water, or other routes of intake.

Molecule	growth of E. coli (E. coli (ATCC 25922); LF 1 mg/ml or 2 mg/ml, ERGO 5 mM or 50 mM, compared to growth of E. coli without additions, FIGS. 1A and 1B)	iron-binding capacity of LF [1]	inhibition of growth of E. coli by previously nitrated LF (E. coli (ATCC 25922); LF nitrated with sodium peroxynitrite, compared to native (non-nitrated) LF)
B1	reduced the growth of E. coli	remained intact	
B2			did not inhibit the growth of E. coli as much as adding native (non-nitrated) LF
